# Laboratory results: the supplement of paper PMC9112550, “Optimization of the antimicrobial peptide Bac7 by deep mutational scanning” (BMC Biology, 2022)
# System: Escherichia coli TOP10
# Experiment: shrunken log2 fold change of peptide-encoding DNA abundance (4.5 h post-induction vs induction); higher = less antimicrobial activity (less host growth inhibition)
# Conditions: time post-induction: 4.5 h; library: site-saturation at positions 5, 18, 19, 20
# 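Further: peptides expressed intracellularly from a pBAD plasmid library in pooled LB shake-flask culture, induced with 0.3% L-arabinose, DNA abundance read by NGS, three biological replicates, DESeq2 with apeglm shrinkage.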
row,Sequence,shrunken log2 fold change
1,RRIRGRPPRLPRPRPRPWVQPRP,0.0601
2,RRIRGRPPRLPRPRPRPSSYPRP,-0.128
3,RRIRWRPPRLPRPRPRPYYWPRP,-1.31
4,RRIRVRPPRLPRPRPRPGESPRP,0.0694
5,RRIRNRPPRLPRPRPRPSRSPRP,-0.076
6,RRIRYRPPRLPRPRPRPHHWPRP,-0.892
7,RRIRWRPPRLPRPRPRPGWFPRP,0.249
8,RRIRKRPPRLPRPRPRPSSDPRP,0.246
9,RRIRRRPPRLPRPRPRPHHSPRP,-0.57
10,RRIRWRPPRLPRPRPRPWESPRP,-0.0449
11,RRIRYRPPRLPRPRPRPAIDPRP,-0.0997
12,RRIRARPPRLPRPRPRPIKFPRP,-0.126
13,RRIRFRPPRLPRPRPRPFKFPRP,-0.107
14,RRIRLRPPRLPRPRPRPNHRPRP,0.00288
15,RRIRFRPPRLPRPRPRPIRPPRP,-0.009
16,RRIRPRPPRLPRPRPRPWNPPRP,-0.496
17,RRIRCRPPRLPRPRPRPNDDPRP,-0.161
18,RRIRARPPRLPRPRPRPAPIPRP,0.448
19,RRIRLRPPRLPRPRPRPRMRPRP,0.667
20,RRIRTRPPRLPRPRPRPGVDPRP,0.0151
21,RRIRVRPPRLPRPRPRPYQAPRP,-0.293
22,RRIRERPPRLPRPRPRPWVSPRP,-0.0377

row,Sequence,shrunken log2 fold change
1,RRIRRRPPRLPRPRPRPFSDPRP,-0.311
2,RRIRVRPPRLPRPRPRPAINPRP,-0.259
3,RRIRHRPPRLPRPRPRPTCQPRP,-0.044
4,RRIRERPPRLPRPRPRPFVEPRP,0.0315
5,RRIRTRPPRLPRPRPRPGSIPRP,-0.025
6,RRIRSRPPRLPRPRPRPFTCPRP,-0.0185
7,RRIRARPPRLPRPRPRPKSHPRP,-0.184
8,RRIRFRPPRLPRPRPRPKHAPRP,0.416
9,RRIRRRPPRLPRPRPRPSFFPRP,0.0112
10,RRIRCRPPRLPRPRPRPMQGPRP,-0.0484
11,RRIRNRPPRLPRPRPRPHSRPRP,-0.0742
12,RRIRPRPPRLPRPRPRPDANPRP,0.172
13,RRIRNRPPRLPRPRPRPDVSPRP,-0.0754
14,RRIRARPPRLPRPRPRPSMQPRP,0.352
15,RRIRSRPPRLPRPRPRPGWMPRP,-0.0141
16,RRIRDRPPRLPRPRPRPIYWPRP,0.202
17,RRIRIRPPRLPRPRPRPYWLPRP,-0.413
18,RRIRYRPPRLPRPRPRPFVPPRP,-0.285
19,RRIRERPPRLPRPRPRPTGTPRP,-0.0482
20,RRIRTRPPRLPRPRPRPMKLPRP,-0.192
21,RRIRSRPPRLPRPRPRPKDKPRP,-0.117
22,RRIRLRPPRLPRPRPRPFQMPRP,-0.193

row,Sequence,shrunken log2 fold change
1,RRIRPRPPRLPRPRPRPVFYPRP,-0.316
2,RRIRYRPPRLPRPRPRPMCPPRP,-0.217
3,RRIRRRPPRLPRPRPRPRNDPRP,0.195
4,RRIRIRPPRLPRPRPRPCACPRP,-0.889
5,RRIRTRPPRLPRPRPRPECVPRP,0.148
6,RRIRRRPPRLPRPRPRPWWFPRP,-0.378
7,RRIRHRPPRLPRPRPRPMWLPRP,-0.362
8,RRIRMRPPRLPRPRPRPYAWPRP,-0.107
9,RRIRSRPPRLPRPRPRPRYEPRP,-0.12
10,RRIRERPPRLPRPRPRPQSLPRP,-0.0684
11,RRIRWRPPRLPRPRPRPILAPRP,0.364
12,RRIRNRPPRLPRPRPRPCSGPRP,-0.242
13,RRIRGRPPRLPRPRPRPHAHPRP,0.895
14,RRIRFRPPRLPRPRPRPKAVPRP,-0.00146
15,RRIRGRPPRLPRPRPRPPNVPRP,0.431
16,RRIRKRPPRLPRPRPRPIVHPRP,-0.42
17,RRIRCRPPRLPRPRPRPAHKPRP,-0.0944
18,RRIRNRPPRLPRPRPRPWYMPRP,-0.911
19,RRIRNRPPRLPRPRPRPPSYPRP,-0.14
20,RRIRRRPPRLPRPRPRPAVIPRP,0.00992
21,RRIRFRPPRLPRPRPRPTYRPRP,-8.67e-05
22,RRIRNRPPRLPRPRPRPAIVPRP,-0.0426

row,Sequence,shrunken log2 fold change
1,RRIRERPPRLPRPRPRPNKTPRP,0.0491
2,RRIRWRPPRLPRPRPRPWTGPRP,-0.0518
3,RRIRIRPPRLPRPRPRPNHNPRP,-0.518
4,RRIRDRPPRLPRPRPRPTEHPRP,-0.109
5,RRIRGRPPRLPRPRPRPHMRPRP,0.997
6,RRIRNRPPRLPRPRPRPDCYPRP,-0.871
7,RRIRLRPPRLPRPRPRPKLKPRP,0.295
8,RRIRLRPPRLPRPRPRPYQPPRP,-0.582
9,RRIRARPPRLPRPRPRPVKEPRP,-0.0493
10,RRIRDRPPRLPRPRPRPCFLPRP,-0.106
11,RRIRFRPPRLPRPRPRPLMMPRP,-0.347
12,RRIRKRPPRLPRPRPRPKPNPRP,0.516
13,RRIRRRPPRLPRPRPRPVGDPRP,-0.0486
14,RRIRPRPPRLPRPRPRPNSEPRP,-0.211
15,RRIRHRPPRLPRPRPRPYVIPRP,-0.00839
16,RRIRPRPPRLPRPRPRPHMQPRP,0.151
17,RRIRDRPPRLPRPRPRPHVWPRP,0.0894
18,RRIRHRPPRLPRPRPRPPVWPRP,0.156
19,RRIRARPPRLPRPRPRPHVTPRP,0.0281
20,RRIRGRPPRLPRPRPRPNERPRP,0.108
21,RRIRFRPPRLPRPRPRPLVLPRP,-0.251
22,RRIRCRPPRLPRPRPRPMTTPRP,0.151

row,Sequence,shrunken log2 fold change
1,RRIRFRPPRLPRPRPRPGWMPRP,-0.0518
2,RRIRGRPPRLPRPRPRPMLAPRP,1.9
3,RRIRKRPPRLPRPRPRPWINPRP,-0.0449
4,RRIRRRPPRLPRPRPRPHHVPRP,0.296
5,RRIRRRPPRLPRPRPRPPDKPRP,0.303
6,RRIRFRPPRLPRPRPRPTAYPRP,-0.243
7,RRIRSRPPRLPRPRPRPWVWPRP,0.39
8,RRIRNRPPRLPRPRPRPPAKPRP,0.521
9,RRIRERPPRLPRPRPRPILLPRP,-0.336
10,RRIRHRPPRLPRPRPRPDGWPRP,0.191
11,RRIRMRPPRLPRPRPRPYVEPRP,-0.133
12,RRIRWRPPRLPRPRPRPGPEPRP,0.809
13,RRIRIRPPRLPRPRPRPNDPPRP,-0.19
14,RRIRWRPPRLPRPRPRPYTMPRP,-0.335
15,RRIRGRPPRLPRPRPRPAKSPRP,0.492
16,RRIRARPPRLPRPRPRPGFFPRP,0.509
17,RRIRSRPPRLPRPRPRPRDMPRP,0.446
18,RRIRTRPPRLPRPRPRPITTPRP,-0.438
19,RRIRTRPPRLPRPRPRPFEYPRP,-0.0571
20,RRIRWRPPRLPRPRPRPCEFPRP,-0.0211
21,RRIRIRPPRLPRPRPRPTMGPRP,0.0793
